Source: patent publication US8748572B2, “RNase a peptides, fragments and uses thereof” (priority 2006, dated 2014)

Assays:
[1] = tested on: yeast tRNA; assay: ribonuclease assay with yeast tRNA substrate; assay type: biochemical; details: for Optimum pH for RNase activity: 50 pmol rRNase, 40 mM sodium phosphate buffers pH 5.5 to 8.0; for Km / kcat: 40 mM sodium phosphate buffer
Method: (§1) FIGS. 4 A-D are graphs showing the ribonucleolytic activity of recombinant leukocyte RNases. (A) is a graph showing the optimum pH for RNase activity. Enzymatic activity was determined with 50 pmol rRNase A-1 (open squares) and rRNase A-2 (closed circles) that was incubated with 250 μg/ml yeast tRNA in 40 mM sodium phosphate buffer at the pHs indicated. Measurements of A260 per time were converted to pmol/s as described in […] and Methods. (B) is a graph showing the initial rates for RNase activity. Enzymatic activity was determined as described in (A) with 40 mM sodium phosphate buffer, pH 7.0. (C) is a graph showing the substrate preference for RNase activity. 50 pmol rRNase A-1 (left panel) and rRNase A-2 (right panel) proteins were incubated with 250 μg/ml of poly U (open squares), poly C (closed circles), poly A (open diamonds), poly G (open triangles) and poly I (open circles) in 40 mM sodium phosphate buffers, pH 7.0. A260 was measured after precipitation of undigested RNA at each of the time points indicated. (D) is two panels of graphs showing interaction of RNase with human placental RNase inhibitor (hPR1). RNase activity was measured with […] of bovine pancreatic RNase (left) or […] rRNase A-1 and rRNase A-2 (right) with 250 μg/ml of yeast tRNA as substrate with (+) or without (−) 200 U human placental RNase inhibitor (hPR1) in 40 mM sodium phosphate buffer, pH 7.0. The hPR1 was added to the RNases in buffer 5 min prior to initiation of RNase assay by addition of substrate. *p<0.01.
Next, the enzymatic activity of the two recombinant leukocyte RNases was characterized. Optimum pH was determined as 7.0 with 50 pmol rRNase A-1 or A-2, with 200 μg yeast tRNA substrate in 40 mM sodium phosphate buffers ranging from pH 5.5 to 8.0, as shown in FIG. 4A. […] Enzymatic activity was measured using 10 pmol rRNase A-1 or rRNase in 40 mM sodium phosphate buffer, pH 7.0. Conversion from A260 to pmol ribonucleotide product was carried out as described in reference 29 and in the Methods.
(§2) The ribonuclease (RNase) assay with yeast tRNA substrate has been described in detail elsewhere. In this study, 10 μL of a 20 mg/ml solution of yeast tRNA, polyuridylic acid (poly U), polyadenylic acid (poly A), polycytidylic acid (poly C), polyguanylic acid (poly G), or polyinosinic acid (poly I) (Sigma-Aldrich) were added to 800 μl of 40 mM sodium phosphate buffer, pH 7.0 containing recombinant FLAG-tagged chicken RNase protein. In experiments in which the pH optimum was to be determined, 40 mM sodium phosphate buffers of pH 5.0, 5.5, 6.0, 6.5, […] or 8.0 were used instead of the buffer of pH 7.0. In some experiments, 200 U human placental RNase inhibitor (Boehringer Mannheim) were added prior to the addition of the tRNA substrate. Conversion of units A260 per unit time to pmol/s were performed as described in [29], based on the following conversion factors: the average molecular weight of a molecule of tRNA is 28,100 (75-90 ribonucleotides/tRNA molecule×341 MW per ribonucleotide) with an A260 of 1.0 corresponding to 40 μg of RNA.

[2] = tested on: poly U, poly C, poly A, poly G, poly I, double-stranded RNA; assay: ribonuclease assay, substrate preference (polyribonucleotides); assay type: biochemical; details: 50 pmol rRNase, pH 7.0; for hydrolysis of poly U: 250 μg/ml poly U
Method: as §1, §2

[3] = tested on: S. aureus 502A; assay: bactericidal colony-forming assay, S. aureus; assay type: cell-based, Staphylococcus aureus
Method: FIGS. 5 A & B are graphs showing the bactericidal activity of rRNases A-1 and A-2. In panel (A) E. coli DH5α and in panel (B) S. aureus 502A were re-suspended in 100 mM sodium phosphate buffer, pH 7.4, and incubated with the indicated concentrations of chicken leukocyte RNase A-1 (open squares) and A-2 (closed circles) for 4 h at 37° C., plated on RNase-free LB agar, and grown overnight for colony counts.
RNase A polypeptides and fragments according to the invention that have bactericidal activity are particularly preferred for use in the treatment methods of the invention. The bactericidal and bacteriostatic activity of a particular RNase A polypeptides or fragments can be assessed by known protocols, such as that described in the methods section and the following described protocol, herein referred to as “a standard bacterial colony formation assay.” Bactericidal assays are well-described in the art, and are performed as described previously, and as exemplified in Examples 3-6. Briefly, an aliquot from a single bacterial colony overnight culture grown in Luria-Beitani (LB) broth is diluted 1:100 in sodium phosphate, pH 7.4, collected by centrifugation, and resuspended in sodium phosphate, pH 7.4. […]
Bactericidal assays were performed as described previously with modifications. […] All points were determined in triplicate.

[4] = isoelectric point; assay type: physicochemical

Molecule | Optimum pH for RNase activity [1] | Km ([1]; pH 7.0) [µM] | kcat ([1]; pH 7.0) [s⁻¹] | Km, times lower than that for RNase A-1 ([1]; pH 7.0) [times] | kcat, times lower than that for RNase A-1 ([1]; pH 7.0) [times] | hydrolysis of poly U [2] | cleavage of poly C and poly A ([2]; 250 μg/ml substrate) | reduction of colony count of S. aureus ([3]; 5 μM, 4 h at 37° C.) [fold] | isoelectric point (pI) [4] | polyribonucleotides other than poly U as substrates ([2]; 250 μg/ml substrate) | effect on colony number of S. aureus ([3]; concentrations up to and including 5)
rRNase A-2: recombinant carboxy-terminal FLAG-tagged Gallus gallus leukocyte RNase A-2, SEQ ID NO: 4, GenBank DQ395276 (protein, listed as Gallus gallus, C-terminal FLAG tag) VPTYQDFLYKHMDFPKTSFPSNAAYCNVMMVRRGMTAHGRCKSFNTFVHTDPRNLNTLCINQPDQALRTTRRHFRITDCKLIRSHPTCRYSGNQFNRRVRVGCRGGLPVHLDGTSP | 7.0 | 0.5 | 0.056 | 34 | 50 | hydrolyzed poly U RNA, at initial rates that were roughly equivalent to one another | cleaved poly C and poly A, although at initial rates that were lower than those observed for poly U | 100 | 11.0 |  | 
rRNase A-1: recombinant carboxy-terminal FLAG-tagged Gallus gallus leukocyte RNase A-1, SEQ ID NO: 2, GenBank DQ395275 (protein, listed as Gallus gallus, C-terminal FLAG tag) VPTYQDFLRTHVDFPKTSFPNIAAYCNVMMVRRGINVHGRCKSLNTFVHTDPRNLNTLCINQPNRALRTTQQQLPVTDCKLIRSHPTCSYTGNQFNHRVRVGCWGGLPVHLDGTFP | 7.0 | 17.2 | 2.61 |  |  | hydrolyzed poly U RNA, at initial rates that were roughly equivalent to one another |  |  | 10.2 | poor substrates | no effect
